The values that follow come from paper PMC5906591.

For this test, the target named is HigA2Ab-His antitoxin (C-terminal His-tag fusion, from pET-HigBA-His) (Acinetobacter baumannii). Kind of test: SEC. (In gel filtration, larger molecules generally elute earlier.)

As to “HigB2Ab toxin, untagged (co-expressed from pET-HigBA-His or pET-HigB-His6-TEV-HigA)”, the stoichiometry N (toxin:antitoxin) is 1.
